{
  "source": "paper PMC8666670",
  "about": "“Malonyl-acyl carrier protein decarboxylase activity promotes fatty acid and cell envelope biosynthesis in Proteobacteria” (The Journal of Biological Chemistry, 2021)",
  "binders": {"B1": {"name": "MadA(M17A), malonyl-ACP decarboxylase (yiiD gene product) of E. coli (enzyme, UniProt P0ADQ2 1-329, looked up)", "chain": "MSQLPGLSRETRESIAAYHLRVPQTEEELERYYQFRWEMLRKPLHQPKGSERDAWDAMAHHQMVVDEQGNLVAVGRLYINADNEASIRFMAVHPDVQDKGLGTLMAMTLESVARQEGVKRVTCSAREDAVEFFAKLGFVNQGEITTPTTTPIRHFLMIKPVATLDDILHRGDWCAQLQQAWYEHIPLSEKMGVRIQQYTGQKFITTMPETGNQNPHHTLFAGSLFSLATLTGWGLIWLMLRERHLGGTIILADAHIRYSKPISGKPHAVADLGALSGDLDRLARGRKARVQMQVEIFGDETPGAVFEGTYIVLPAKPFGPYEEGGNEEE", "notes": "YiiD (MadA) of E. coli, amplified from Top10 genomic DNA, plasmid pPJ604 with M17A to remove a second start site; Cleavage of the His6 tag is reported only for ACP and MadA^C; MadA^C is said to end at residue 329, so the whole protein probably spans 1-329; also called MadA(M17A) mutant"}},
  "key": {"[1]": {"target": "GlmU, glucosamine-1-phosphate N-acetyl transferase/N-acetyl-glucosamine-1-phosphate uridylyltransferase of E. … (E. coli, UniProt P0ACC7 1-456)", "sequence (P0ACC7 whole entry)": "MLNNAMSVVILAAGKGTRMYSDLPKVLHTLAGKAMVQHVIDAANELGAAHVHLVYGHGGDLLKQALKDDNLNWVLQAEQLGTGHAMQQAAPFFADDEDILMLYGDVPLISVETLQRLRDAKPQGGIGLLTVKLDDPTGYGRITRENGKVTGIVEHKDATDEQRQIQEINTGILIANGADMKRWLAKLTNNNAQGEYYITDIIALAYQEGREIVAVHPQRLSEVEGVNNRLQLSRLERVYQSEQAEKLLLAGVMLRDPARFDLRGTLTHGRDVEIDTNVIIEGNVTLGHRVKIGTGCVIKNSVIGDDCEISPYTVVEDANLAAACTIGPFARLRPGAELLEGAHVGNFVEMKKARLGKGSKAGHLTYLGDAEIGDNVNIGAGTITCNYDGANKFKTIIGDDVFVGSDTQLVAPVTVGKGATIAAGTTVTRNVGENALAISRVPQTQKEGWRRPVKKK", "test": "cell-based or functional assay"}, "[2]": {"target": "B1", "test": "AUC; sedimentation analysis (methods: sedimentation velocity, 50,000 rpm, interference optics), 0.02 M Tris pH 7.5, 0.5 M NaCl, 20 °C, no reducing agents", "conditions": "both partners purified"}, "[3]": {"target": "the molecule itself", "test": "SEC; gel filtration chromatography of the purified recombinant protein"}, "[4]": {"target": "the molecule itself", "test": "AUC; sedimentation analysis (methods: sedimentation velocity, 50,000 rpm, interference optics), 0.02 M Tris pH 7.5, 0.5 M NaCl, 20 °C, no reducing agents"}},
  "data": [
    {"binder": "acetyl-acyl carrier protein (acetyl-ACP) (natural protein, UniProt P0A6A8 1-78, looked up, prosthetic group with attached acetyl chain (acetyl thioester), made from apo-ACP and acetyl-CoA with [ACP]synthase) MSTIEERVKKIIGEQLGVKQEEVTNNASFVEDLGADSLDTVELVMALEEEFDTEIPDEEAEKITTVQAAIDYINGHQA", "values": [
      {"measurement": "apparent KM of the GlmU acetyltransferase half reaction for [^14C]acetyl-ACP (radiochemical TLC assay, 0–32 μM acetyl-ACP)", "setting": "[1]", "value": 20, "unit": "µM"}
    ]},
    {"binder": "acyl carrier protein (ACP) (natural protein, UniProt P0A6A8 1-78, looked up, acyl carrier protein; The ACP disulfide dimers seen in the sedimentation analysis imply that at least part of the preparation carries the phosphopantetheine thiol (holo-ACP)) MSTIEERVKKIIGEQLGVKQEEVTNNASFVEDLGADSLDTVELVMALEEEFDTEIPDEEAEKITTVQAAIDYINGHQA", "values": [
      {"measurement": "stoichiometry N", "setting": "[2]", "value": 2, "unit": "ACP per MadA dimer"}
    ]},
    {"binder": "MadA^C, carboxy-terminal hot dog domain of E. coli MadA (domain or fragment, UniProt P0ADQ2 171-329, looked up, MadA (YiiD) of E. coli, amino acids 171 to 329, amplified from Top10 genomic DNA) GDWCAQLQQAWYEHIPLSEKMGVRIQQYTGQKFITTMPETGNQNPHHTLFAGSLFSLATLTGWGLIWLMLRERHLGGTIILADAHIRYSKPISGKPHAVADLGALSGDLDRLARGRKARVQMQVEIFGDETPGAVFEGTYIVLPAKPFGPYEEGGNEEE", "values": [
      {"measurement": "stoichiometry N", "setting": "[3]", "value": 2}
    ]},
    {"binder": "B1", "values": [
      {"measurement": "stoichiometry N", "setting": "[4]", "value": 2}
    ]}
  ]
}
